Data published in the supplement of paper PMC10126150.
± gives the standard deviation of the averaged measurements.

Tested on: ATP
Assay: switch fluorescence ratio, 500 uM ATP over buffer (Cy3 cluster intensity, sum of 5 cycles each) (fold (ratio)); higher = stronger signal-on switching upon ATP binding; sequences stand for … in TCGTCGGCAGCGTCAGATGTGTATAAGAGACAGTTTTTTTTTTTTTTTTTTTTTTTTT…TC
Conditions: aptamer strand: ATP DNA aptamer (quencher-CACCTGGGGGAGTATTGCGGAGGAAGG + anchor), 100 nM annealed; ATP concentration: 500 uM
Method in brief: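 Switching-strand clusters labelled with Cy3 on a modified Illumina MiSeq flow-cell were annealed to 100 nM quencher-labelled ATP aptamer, imaged in selection buffer, and re-imaged after 15 min with 500 uM ATP at 22 °C. This was done over five cycles with NaOH stripping and re-annealing in between. The fluorescence ratio is summed target-cycle over summed buffer-cycle Cy3 intensity per cluster, averaged per switch-domain sequence, excluding clusters outside 100-1000 RFU.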
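Further: ATP exposure 15 min at 22 °C before imaging.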

Sequence	switch fluorescence ratio
CTTTAACGTT	0.981 ± 0.0073
CTTTAAGCTT	0.9981 ± 0.0027
CTTTAATGTT	0.988 ± 0.037
CTTTACGTCG	0.982 ± 0.016
CTTTACTAGG	1.016 ± 0.0052
CTTTAGGGTG	1.06 ± 0.047
CTTTAGTACG	0.9734 ± 0.0012
CTTTATATCT	0.993 ± 0.03
CTTTCCTATG	1.07 ± 0.019
CTTTCTGGGG	0.991 ± 0.017
CTTTGAATTG	0.987 ± 0.023
CTTTGAGACG	0.978 ± 0.068
CTTTGCTAAC	2.21 ± 0.072
CTTTGGAACT	1.06 ± 0.065
CTTTGGGGAT	1.05 ± 0.12
CTTTGGTGTC	1.01 ± 0.029
CTTTGGTGTT	1.01 ± 0.017
CTTTGTCAGT	0.979 ± 0.03
CTTTGTTATG	0.9909 ± 0.0047
CTTTGTTGGT	0.9831 ± 0.0082
CTTTGTTTTT	0.9893 ± 0.0089
CTTTTACCGG	1.04 ± 0.013
CTTTTAGGGG	1.01 ± 0.012
CTTTTGCGCA	1.007 ± 0.0079
CTTTTGGCCT	1.03 ± 0.038

Sequence	switch fluorescence ratio
CTTTTGGTTT	0.975 ± 0.032
CTTTTTGTTT	1.01 ± 0.041
CTTTTTTGGG	1.01 ± 0.014
CTTTTTTTTG	0.993 ± 0.017
GAAAAAACAC	1.16 ± 0.1
GAAAAAATGG	1.15 ± 0.26
GAAAAAGAGG	0.985 ± 0.019
GAAAAAGATT	0.999 ± 0.017
GAAAAAGCGG	1.04 ± 0.015
GAAAAAGGCA	0.974 ± 0.033
GAAAAAGGCC	1.02 ± 0.011
GAAAAATGAC	0.999 ± 0.021
GAAAACAGTT	0.9951 ± 0.0053
GAAAACGAAT	1.07 ± 0.14
GAAAAGATTG	0.972 ± 0.024
GAAAAGGGGG	0.992 ± 0.053
GAAACAGACA	1.08 ± 0.035
GAAACATTGG	1.0357 ± 0.00021
GAAACCGTGG	1.06 ± 0.019
GAAACGAATT	1.02 ± 0.018
GAAACTTGTG	0.963 ± 0.025
GAAAGAGGGT	1.03 ± 0.035
GAAAGATACC	1.03 ± 0.043
GAAAGCGGTG	1.01 ± 0.015
GAAAGGAAAA	0.975 ± 0.016

Sequence	switch fluorescence ratio
GAAAGGCGAG	1.11 ± 0.053
GAAAGGGAAA	1.03 ± 0.032
GAAAGGGCTG	1.05 ± 0.087
GAAAGGGGCC	1.01 ± 0.066
GAAAGGGGGC	0.963 ± 0.041
GAAAGGGTTA	0.9898 ± 0.0085
GAAAGTCTGT	1.07 ± 0.087
GAAAGTTCGA	0.987 ± 0.01
GAAATAAAAT	1 ± 0.024
GAAATACCTT	0.976 ± 0.0021
GAAATACTCT	1.44 ± 0.12
GAAATAGGTA	0.988 ± 0.013
GAAATATCAT	0.971 ± 0.018
GAAATATGGC	1.15 ± 0.062
GAAATCACTC	1.15 ± 0.13
GAAATCGCCA	1.022 ± 0.007
GAAATCGGAT	0.972 ± 0.016
GAAATGATGG	0.978 ± 0.0013
GAAATGGGGG	0.991 ± 0.028
GAAATTAAGC	1.06 ± 0.057
GAAATTACAG	0.994 ± 0.016
GAAATTAGCC	1.053 ± 0.0092
GAAATTAGTT	0.991 ± 0.018
GAAATTATTA	0.9919 ± 0.0075
GAAATTGCAT	0.996 ± 0.02

Sequence	switch fluorescence ratio
GAAATTGGTT	0.988 ± 0.067
GAAATTTTGC	0.995 ± 0.033
GAACGGCTCG	1.023 ± 0.0038
GAACGTTGGG	0.993 ± 0.033
GAACTAGGTC	1.01 ± 0.021
GAACTGATGT	1 ± 0.018
GAACTGTATG	1.05 ± 0.056
GAACTTCTGG	0.985 ± 0.038
GAACTTTTTA	0.981 ± 0.011
GAAGAAAATT	1.01 ± 0.014
GAAGAATGGT	0.975 ± 0.013
GAAGAATGTG	1.01 ± 0.0082
GAAGAGGGAT	0.981 ± 0.049
GAAGATACGG	1.03 ± 0.032
GAAGATTTCT	0.976 ± 0.03
GAAGCTAGAA	1.52 ± 0.3
GAAGGAAAAG	0.992 ± 0.099
GAAGGATAGC	0.998 ± 0.018
GAAGGATAGG	0.975 ± 0.029
GAAGGCCCGG	0.99 ± 0.062
GAAGGGAAAG	1.02 ± 0.012
GAAGGGAGAG	0.993 ± 0.031
GAAGGGCGCG	1.029 ± 0.0034
GAAGGGGATT	1.015 ± 0.01
GAAGGGGGAT	1.02 ± 0.051
